The chains are these.
B1: 54-TC7-V-D10 (scFv)
scFv: QVQLQQWGAGLLKPSETLSLTCAVYGGSFSGYYWSWIRQPPGKGLEWIGEINHSGSTNYNPSLKSRVTISVDTSKNQFSLKLSSVTAADTAVYYCARGGYRSYWYFDLWGRGTLVTVSSGGSGGSGGSGGSQSALTQPASVSGSPGQSITISCTGTSSDVGGYNSVSWYQHHPGKAPKLMIYDVSDRPSGVSDRFSGSKSGNTASLTISGLQAEDEADYYCSSYAGSNNVVFGGGTKVTVL
notes: His-tagged
B2: 40-TC7-VI-F11 (scFv)
scFv: EVQLVESGGGVVQPGRSLRLSCAASGFTFSSYAMHWVRQAPGKGLEWVAVISYDGSNKYYADSVKGRFTISRDNSKNTLYLQMNSLRAEDTAVYYCARDGYGFDYWGQGTLVTVSSGGSGGSGGSGGSSYELTQSPSVSVAPGQTARITCGGNNIGSKSVHWYQQKPGQAPVLVVYDDSDRPSGIPERFSGSNSGNTATLTISRVEAGDEADYYCQVWDSSTPYVFGTGTKLTVL
notes: His-tagged
B3: 35-TC6-VII-A09 (scFv)
scFv: EVQLVQSGGGVVQPGRSLRLSCAASGFTFSSYGMHWVRQAPGKGLEWVAVISYDGSNKYYADSVKGRFTISRDNSKNTLYLQMNSLRAEDTAVYYCAKAGAPPHYYYGMDVWGQGTTVTVSSGGSGGSGGSGGSQSALTQPASVSGSPGQSITISCTGTSSDVGGYDYVSWYQQHPGKAPKLMIYEVTDRPSGIPNRFSGSKSGNTASLTISGLQAEDEADYYCSSYTYTSTLEVFGGGTKVTVL
notes: His-tagged
B4: 38-TC7-V-G06 (scFv)
scFv: QMQLVQSGAEVKKPGSSVKVSCKASGGTFSSYAISWVRQAPGQGLEWMGWISAYNGNTNYAQKLQGRVTMTTDTSTSTAYMELRSLRSDDTAVYYCARDDYWGQGTLVTVSSGGSGGSGGSGGSSYELTQPPSVSVAPGKTARITCSGDVLGENYADWYQQKPGQAPELVIYEDSERYPGIPERFSGSTSGNTTTLTISRVLTEDEADYYCLSGDEDNRVFGGGTKLTVL
notes: His-tagged
B5: 55-TC4-IX-G04 (scFv)
scFv: QVQLLESGGGVVQPGRSLRLSCAASGFTFSSYAMHWVRQAPGKGLEWVAVISYDGSNKYYADSVKGRFTISRDNSKNTLYLQMNSLRAEDTAVYYCARGLGFGSGWYEYVDAFDIWGQGTMVTVSSGGSGGSGGSGGSQSVLTQPASVSGSPGQSITISCTGTSSDVGSYNLVSWYQQHPGKAPKLMIYEVSKRPSGVSNRFSGSKSGNTASLTISGLQAEDEADYYCSSYRSNNTPWVFGGGTKLTVL
notes: His-tagged
B6: 43-TC4-VII-C04 (scFv)
scFv: QVQLLESGGGLVQPGRSLRLSCAASGFTFDDYAMHWVRQAPGKGLEWVSGISWNSGSIGYADSVKGRFTISRDNAKNSLYLQMNSLRAEDTAVYYCARDLVYYYGMDVWGQGTTVTVSSGGSGGSGGSGGSQSVLTQPPSVSGTPGQGVSISCSGSSSNIGWKTVNWYQQVPGMAPKLLIYSDNQRPSGVPDRFSGSKSATSASLAISGLQSEDEADYYCASWDASVNAPVFGGGTKLTVL
notes: His-tagged
B7: 52-TC7-VIII-C02 (scFv)
scFv: QVQLLESGGGVVQPGRSLRLSCAASGFTFSSYGMHWVRQAPGKGLEWVAVISYDGSNKYYADSVKGRFTISRDNSKNTLYLQMNSLRAEDTAVYYCAKGAYYYGSVSGMDVWGQGTTVTVSSGGSGGSGGSGGSSYELTQPVSVSVALGQTARLTCAGNNIGSKNVHWYQQKPSQAPVLVIYNDNIRPNFGIPERFSGSNSGNTATLTISSAQAGDEADYYCQVWDSSTAEVFGGGTKLTVL
notes: His-tagged
B8: 46-TC7-VII-E11 (scFv)
scFv: QVQLVQSGGGVVQPGRSLRLSCAASGFTFSSYAMHWVRQAPGKGLEWVAVISYDGSNKYYADSVKGRFTISRDNSKNTLYLQMNSLRAEDTAVYYCARDSSGYYYGSDAFDIWGQGTMVTVSSGGSGGSGGSGGSSYELTQPPSVSVALGQTVRITCQGDSLRSYYASWYQQKPGQAPVLVIYGKNNRPSGIPDRFSGSSSGNTASLTITGAQAEDEADYYCNSRDSSGNPWVFGGGTKVTVL
notes: His-tagged
B9: 56-TC7-VI-H08 (scFv)
scFv: QMQLVQSGAEVKKPGASVKVSCKASGYTFTSYYMHWVRQAPGQGLEWMGIINPSGGSTSYAQKFQGRVTMTRDTSTSTAYMELRSLRSDDTAVYYCARGWETNDAFDIWGQGTMVTVSSGGSGGSGGSGGSQSVLTQPPSVSGAPGQKVTISCSGSNSNVGNHYLSWYQHLPGTAPRLLIFDNNKRPSGIPDRFSGSKSGASATLDITGLQTGDEADYFCGTWDSRLNVWVFGGGTKLTVL
notes: His-tagged
B10: 59-TC4-VII-F02 (scFv)
scFv: QLQLQESGPGLVKPSGTLSLTCAVSGGSISSSNWWSWVRQPPGKGLEWIGEIYHSGSTNYNPSLKSRVTISVDKSKNQFSLKLSSVTAADTAVYYCAGPGPDPNDAFDIWGQGTMVTVSSGGSGGSGGSGGSSSELTQDPAVSVALGQTVRITCQGDSLRSYYASWYQQLPGTAPKLLIYQDSKRPSGIPERFSGSNSGNTATLTISGTQAMDEADYYCQAWDSSTAVFGGGTKLTVL
notes: His-tagged
B11: 51-TC7-VIII-G06 (scFv)
scFv: QVQLLESGGGLVQPGRSLRLSCAASGFTFDDYAMHWVRQAPGKGLEWVSGITWNSGSIGYADSVKGRFTISRDNAKNSLYLQMNSLRAEDTAVYYCAREVAARPFYYYGMDVWGQGTTVTVSSGGSGGSGGSGGSQSVLTQPPSVSVAPGKTARITCGGNNIGSKSVHWYQQKPGQAPVLVVYDDSDRPSGIPERFSGSNSGNTATLTISGTQAMDEADYYCQAWDSSTVFGGGTKLTVL
notes: His-tagged

One test has as its target T1, CD70 on cells (CHO-CD70, JVM-3, U266, Raji, THP-1, T cells) (human, UniProt P32970 1-193).
T1 construct: whole, on cells; also called cell-surface CD70
T1 sequence (looked up): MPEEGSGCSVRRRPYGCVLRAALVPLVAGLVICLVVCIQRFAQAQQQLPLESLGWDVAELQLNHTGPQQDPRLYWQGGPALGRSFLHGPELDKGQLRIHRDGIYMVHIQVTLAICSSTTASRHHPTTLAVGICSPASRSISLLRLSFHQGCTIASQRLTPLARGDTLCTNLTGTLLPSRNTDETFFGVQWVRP
The experiment in a line: 1.25 µg/mL scFv on CHO-CD70 cells. The method, boiled down: (§1)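 Tumour cell lines with high CD70 expression (CHO-CD70, JVM3, U266) or low CD70 expression (CHO WT, K562) were used to assess cell binding of human scFv antibodies, with results recorded per line. These antibodies had been selected by panning a naïve human library on the CD70 extracellular domain (aa39-193).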
Molecule B1 came in with a cell binding of 240000.
The same measure, in the same setting: the value for B2 was 235000.
The same measure, in the same setting: the value for B3 was 1.15e+06; that for B4 was 1.34e+06.
In the case of B5, the cell binding is 87200.
The same measure, in the same setting: the value for B6 was 723000; that for B7 was 430000; that for B8 was 76200.
Same read-out and setting: then B9, with 296000.
Still for that read-out and setting: the value for B10 was 850000.
B11 came in with a cell binding of 170000.

In another test the target is T2, human CD70, recombinant, N-terminally biotinylated (residues 39-193) (human, UniProt P32970 39-193, N-terminal biotin).
T2 construct: range 39-193; the same entry is used there; also called biotinylated human CD70; CD70 biotin
T2 sequence (looked up): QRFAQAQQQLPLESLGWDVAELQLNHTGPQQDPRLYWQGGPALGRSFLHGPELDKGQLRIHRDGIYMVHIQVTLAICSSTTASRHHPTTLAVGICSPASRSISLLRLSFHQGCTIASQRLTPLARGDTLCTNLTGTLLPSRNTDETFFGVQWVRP
The experiment in a line: CD27 blocking ELISA, 3 µM scFv, strep/HRP. On the technique in general: An ELISA detects its analyte on a solid surface through an enzyme-linked reagent.
For the molecule B1, the strep/HRP is 1.17.
Take B2: the strep/HRP was 1.37.
On the same count and under the same terms, then B3, with 1.49; and B4, with 1.53; and B5, with 1.28.
On to B6, for which the strep/HRP came to 1.44.
Same read-out and setting: then B7, with 0.533; and B8, with 1.26; and B9, with 1.44.
Same read-out and setting: the value for B10 was 1.43; that for B11 was 1.46.

The target of another test is T1, CD70 on cells (CHO-CD70, JVM-3, U266, …). Kind of test: 1.25 µg/mL scFv on JVM-3 cells. The method, boiled down:
as §1
Turning to B1, the cell binding is 2130.
With B2, the cell binding turned out to be 4870.
On the same count and under the same terms, the value for B3 was 18800; that for B4 was 27400.
Same read-out and setting: the value for B5 was 3570.
On to B6, for which the cell binding was 45000.
In turn, B7 yielded a cell binding of 8050.
On the same count and under the same terms, then B8, with 1790.
Same read-out and setting: the value for B9 was 2360; that for B10 was 52100.
On the same count and under the same terms, then B11, with 4260.

For a further test, the target named is T2, human CD70, recombinant, N-terminally …. The experiment in a line: CD27 blocking ELISA, 3 µM scFv, anti-His/HRP. Further: unit not given here. Here is the method: Human scFv antibodies binding CD70 were generated by panning a naïve human library with the extracellular domain (aa39-193) of CD70. 53 antibodies were identified. The ability of CD27 to block CD70 binding of the identified antibodies was measured by ELISA using two different assays. In the first assay, CD27 and his-tagged scFv anti-CD70 binders were simultaneously added to surface bound CD70, and the ability of the scFv binders to bind CD70 was detected with anti-His HRP. In the second assay, plate-bound CD70 was pre-incubated with CD27 for 30 minutes, and then additional CD27 and the his-tagged scFv anti-CD70 binder was added. The ability of the scFv binders to bind CD70 was detected with anti-His HRP. FIG. 34 is a schematic of the two different CD27 blocking assays. CD70 affinity was also measured by SPR analysis. scFv antibodies were also tested for their ability to bind tumor cell lines with high (CHO-CD70, JVM3, and U266) and low levels (CHO WT and K562 of CD70 expression. Results for 39 antibodies are shown in Table 1 below.
For B1, the “anti His/HRP” value worked out at 1.46.
For B2, the “anti His/HRP” value was determined as 1.84.
On the same count and under the same terms, the value for B3 was 0.639; that for B4 was 1.02; that for B5 was 1.24.
Consider B6, for which the “anti His/HRP” value stood at 1.81.
The same measure, in the same setting: then B7, with 1.56; and B8, with 2.28.
Still for that read-out and setting: then B9, with 1.5; and B10, with 2.06.
As to B11, the “anti His/HRP” value was 0.676.

The target is the same in a further test. Kind of test: SPR. The method, boiled down:
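Surface plasmon resonance (SPR) was used to determine the affinity (Kd) of human scFv antibodies for recombinant, N-terminally biotinylated human antigen. These antibodies were selected from a naïve human library panned against the CD70 extracellular domain, spanning aa39-193.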
In the case of B1, the dissociation constant (Kd) amounted to 0.209 µM.
On to B2, for which the Kd came to 0.279 µM.
The same measure, in the same setting: the value for B3 was 0.367 µM; that for B4 was 0.182 µM; that for B5 was 0.984 µM.
On the same count and under the same terms, the value for B6 was 0.0699 µM; that for B7 was 0.0646 µM.
Still for that read-out and setting: the value for B8 was 0.18 µM.
Regarding B9, the Kd turned out to be 0.535 µM.
On to B10, for which the Kd was 0.101 µM.
In the case of B11, the Kd turned out to be 0.532 µM.

The target in a further test is T1, CD70 on cells (CHO-CD70, JVM-3, U266, …). Kind of test: 1.25 µg/mL scFv on U266 cells. In outline:
as §1
In turn, B1 registered a cell binding of 1140.
On the same count and under the same terms, the value for B2 was 11800; that for B3 was 16500.
Still for that read-out and setting: then B4, with 16900; and B5, with 2700.
The same measure, in the same setting: then B6, with 20000; and B7, with 2980.
For the molecule B8, the cell binding was 2290.
The same measure, in the same setting: then B9, with 6310; and B10, with 18500; and B11, with 2140.

The Kd is the constant that tells how readily two partners part at equilibrium.

Source of the values: patent US20240252641A1 (TCR2 THERAPEUTICS, published 2024).
